Source: patent US20150010566A1

What was measured:
Experiment in all cases: cell-based or functional assay
[1] = target: HA of Influenza H3N2 (A/Swine/St. Oedenrode/1996), on infected MDCK cells or on virus (Influenza A virus H3N2 A/Swine/St. Oedenrode/1996 (host Swine))
[2] = target: HA of high pathogenic H7N7 (A/Ch/Neth/621557/03), on infected MDCK cells or on virus (Influenza A virus H7N7 A/Ch/Neth/621557/03 (host Chicken))
[3] = target: HA of low pathogenic H7N1 (A/Ch/Italy/1067/1999), on infected MDCK cells or on virus (Influenza A virus H7N1 A/Ch/Italy/1067/1999 (host Chicken))
[4] = target: HA of H5N1 A/turkey/Turkey/05 virus (Influenza A virus H5N1 A/turkey/Turkey/05)
[5] = target: HA of Influenza H1N1 (A/Neth/602/2009), on infected MDCK cells or on virus (Influenza A virus H1N1 A/Neth/602/2009 (host Human))

## CR8020 (antibody)
[1]
  IC50, in vitro virus neutralization on MDCK cells: > 15 µg/mL
[2]
  IC50, in vitro virus neutralization on MDCK cells: 0.6 µg/mL
[3]
  IC50, in vitro virus neutralization on MDCK cells: > 15 µg/mL
[4]
  IC50, in vitro virus neutralization on MDCK cells: > 15 µg/mL
[5]
  IC50, in vitro virus neutralization on MDCK cells: > 15 µg/mL
